Paper PMC12232321

What was measured:
[1] = target: LOV1-C57M-SL-LOV2-C250A fusion protein (short linker) (UniProt Q8LPD9); experiment: crystal structure; fusion protein pre-irradiated with blue light and reoxidised (FMN^·-Met/FMNox); 20% PEG 3350, 0.1 M BIS-TRIS pH 6.5, 0.1 M ammonium sulfate, 5 mg/mL
[2] = target: LOV2-C250A single domain of Phot1; experiment: crystal structure; LOV2-C250A crystallized in the dark (FMNox)

LOV1-C57M-SL-LOV2-C250A fusion protein (short linker) (from UniProt Q8LPD9 17-125)
stoichiometry N [1]: 2

LOV2-C250A single domain of Phot1 (domain or fragment)
stoichiometry N [2]: 2
